Values of other authors, collected in patent US20170022546.

Target: T1, KZF (Kaiso zinc finger domain, three C2H2 fingers) (UniProt Q86T24)
T1 sequence: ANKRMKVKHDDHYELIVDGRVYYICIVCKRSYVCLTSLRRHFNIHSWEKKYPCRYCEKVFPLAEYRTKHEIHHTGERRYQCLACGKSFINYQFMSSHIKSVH
Conditions: 5mC; CITED ref 45; 1:1 complex

Substance: consecutive methylated CpG target (literature)
- Kd: 0.21 nM
